First the molecules themselves.
B1: purified recombinant active caspase-3 (His6-tagged) (enzyme)
chain 1: SGISLDNSYKMDYPEMGLCIIINNKNFHKSTGMTSRSGTDVDAANLRETFRNLKYEVRNKNDLTREEIVELMRDVSKEDHSKRSSFVCVLLSHGEEGIIFGTNGPVDLKKITNFFRGDRCRSLTGKPKLFIIQACRGTELDCGIETD
chain 2: SGVDDDMACHKIPVEADFLYAYSTAPGYYSWRNSKDGSWFIQSLCAMLKQYADKLEFMHILTRVNRKVATEFESFSFDATFHAKKQIPCIVSMLTKELYFYH
notes: domain: large subunit;domain: small subunit; also called His6-caspase-3; CPP32
B5: GST-c-IAP-1(BIR) (other, human, UniProt Q13490 1-350, looked up)
chain: MHKTASQRLFPGPSYQNIKSIMEDSTILSDWTNSNKQKMKYDFSCELYRMSTYSTFPAGVPVSERSLARAGFYYTGVNDKVKCFCCGLMLDNWKLGDSPIQKHKQLYPSCSFIQNLVSASLGSTSKNTSPMRNSFAHSLSPTLEHSSLFSGSYSSLSPNPLNSRAVEDISSSRTNPYSYAMSTEEARFLTYHMWPLTFLSPSELARAGFYYIGPGDRVACFACGGKLSNWEPKDDAMSEHRRHFPNCPFLENSLETLRFSISNLSMQTHAARMRTFMYWPSSVPVQPEQLASAGFYYVGRNDDVKCFCCDGGLRCWESGDDPWVEHAKWFPRCEFLIRMKGQEFVDEIQG
notes: range 1-350; not shown: glutathione S-transferase encoded by vector pGEX4T; vector linker not described

Test [1] has as its system pro-caspase-9 processing. As to the kind of experiment: Cytochrome c-induced processing of pro-caspase-9 in 293 cell cytosolic extracts. The format is biochemical. As to conditions: 10 µM cytochrome c, 1 mM dATP, 30 °C, 30 minutes. The method, then: For the results shown in Figure 4, in vitro translated ^35S-labeled pro-caspase-9 was added to cytosolic extracts from 293 cells, and subsequently incubated for 30 min at 30 °C with (lanes 2-6) or without (lane 1) 10 µM cytochrome c and 1 mM dATP in the presence or absence of 0.2 µM GST-IAP proteins or a GST control protein. Cytochrome c induced processing of pro-caspase-9 was subsequently monitored by SDS-PAGE and autoradiography.
Pro-caspase-9 inhibition by Ac-DEVD-fmk, zVAD-fmk and XIAP was compared as follows. In vitro translated ^35S-labeled pro-caspase-9 was added to cytosolic extracts from 293 cells containing 10 µM cytochrome c and 1 mM dATP. Samples were incubated at 30 °C for 30 minutes in the presence of the indicated concentrations of inhibitors. Proteins were separated on SDS-PAGE gels, dried directly, and exposed to film.

In test [2] the test system is 293T cells. As to the kind of experiment: Bax-induced apoptosis and caspase-3 processing in transfected 293T cells. The class given is cell-based, Human. The conditions noted are these: PI staining, 24 hr; Bax expressing cells treated with 50 µM inhibitor (Bax alone about 25%). The method, then: N-benzyloxycarbonyl-Val-Ala-Asp fluoromethylketone (zVAD-fmk; 50 µM) (Bachem California; Torrance CA) was added immediately after transfection of the Bax plasmid. Transfection efficiency was uniformly 80-90%, as determined by X-Gal staining following cotransfection with pCMV-βGal.
Cells were maintained in culture for 24 hr, then floating and attached cells were harvested and an aliquot was removed and the percent of dead cells was determined by either trypan blue or propidium iodide (PI) dye exclusion assay. A second aliquot was used to assess the percentage of apoptotic cells with subdiploid DNA content by FACS analysis of PI stained, ethanol fixed cells. The remaining cell pellets were lysed in 10 mM HEPES (pH 7.5), 142 mM KCl, 1 mM EGTA, 1 mM DTT, 0.2% NP-40, 0.1 mM PMSF and used for immunoblot analysis or for protease assays.

The target of test [3] is purified recombinant active caspase-7 (His6-tagged) (UniProt P55210). Nature of the test: progress curves of DEVD-AFC hydrolysis by caspase-7 (150 pM) with 0.025 to 1.5 µM IAP.
Test [4] deals with B5. As to the kind of experiment: glutathione-SEPHAROSE affinity chromatography.
Test [5] addresses T1, GST-c-IAP-1 (human, UniProt Q13490 1-618).
T1 construct: domain: full length; also called HIAP-2; hMIHB; not shown: glutathione S-transferase encoded by vector pGEX4T; vector linker not described
Nature of the test: opening sentence of Example IV.

Test [6] has as its target T2, GST-c-IAP-2 (human, UniProt Q13489 1-604).
T2 construct: domain: full length; also called HIAP-1; hMIHC; not shown: glutathione S-transferase encoded by vector pGEX4T; vector linker not described
Nature of the test: opening sentence of Example IV.

Test [7] deals with T1, GST-c-IAP-1. As to the kind of experiment: GST-IAP added to 293 extracts previously treated with cytochrome c, recovered on glutathione-Sepharose, anti-caspase-3 immunoblot.
The target of test [8] is T2, GST-c-IAP-2. The test is described as above.
In test [9] the target is B1. Nature of the test: GST pull-down on glutathione-SEPHAROSE, immunoblot. (In western blotting, separated proteins are transferred to a membrane and probed.)
Test [10] has as its target B1. Nature of the test: progress curves of DEVD-AFC hydrolysis by caspase-3 (7 pM) with 0.025 to 1.5 µM IAP.
Test [11] has as its target T1, GST-c-IAP-1. As to the kind of experiment: opening sentence of Example VI.
Test [12] addresses T2, GST-c-IAP-2. Nature of the test: opening sentence of Example VI.
Test [13] addresses T3, myc-tagged c-IAP-1 (human, UniProt Q13490 1-618).
T3 construct: also called pcDNA3myc-c-IAP-1; pcDNA3-myc-IAP-1; not shown: Myc tag of pcDNA3myc
Nature of the test: legend of Figure 8: anti-myc immunoprecipitation, anti-FLAG immunoblot.

The target in test [14] is T4, myc-tagged c-IAP-2 (human, UniProt Q13489 1-604).
T4 construct: also called pcDNA3myc-c-IAP-2; pcDNA3-myc-c-IAP-2; not shown: Myc tag of pcDNA3myc
The test is described as above.

Data on nine molecules can be found in patent EP0983376B1, “SCREENING ASSAYS FOR AGENTS THAT ALTER INHIBITOR OF APOPTOSIS (IAP) PROTEIN REGULATION OF CASPASE ACTIVITY” (The Burnham Institute, priority 1997, dated 1998).

As to “N-benzyloxycarbonyl-Val-Ala-Asp fluoromethylketone [zVAD-fmk]”, the “concentration to completely abolish processing of pro-caspase-9” value in test [1] is “at least 5 µM”. The apoptotic cells result in test [2] is on record as “about 5%”.

The term Ki denotes a dissociation constant, usually derived from enzyme kinetics or from competition with a known ligand. In the case of GST-c-IAP-2 (from UniProt Q13489 1-604), the Ki in [3] is 26 nM.

Consider B1, for which the binding result in test [4], in test [5] and in test [6] was “binds” in each case.

B2: processed (active) caspase-3 of 293 cell cytosolic extracts treated with cytochrome c and dATP (enzyme, human)
chain 1: SGISLDNSYKMDYPEMGLCIIINNKNFHKSTGMTSRSGTDVDAANLRETFRNLKYEVRNKNDLTREEIVELMRDVSKEDHSKRSSFVCVLLSHGEEGIIFGTNGPVDLKKITNFFRGDRCRSLTGKPKLFIIQACRGTELDCGIETD
chain 2: SGVDDDMACHKIPVEADFLYAYSTAPGYYSWRNSKDGSWFIQSLCAMLKQYADKLEFMHILTRVNRKVATEFESFSFDATFHAKKQIPCIVSMLTKELYFYH
notes: domain: large subunit;domain: small subunit; Endogenous protein of the extract, detected with anti-caspase-3 antiserum that sees only the zymogen and the large subunit; also called processed caspase-3; band 3
B2: the binding result in test [7] and in test [8] was “binds” throughout.

B3: GST-CD40 cytosolic domain (other, UniProt P25942 216-277, looked up)
chain: KKVAKKPTNKAPHPKQEPQEINFPDDLPGSNTAAPVQETLHGCQPVTQEDGKESRISVQERQ
notes: domain: cytosolic domain; Control protein; not shown: glutathione S-transferase
On to B3, for which the binding result in [9] is “no binding”.

B4: GST-c-IAP-2(BIR) (other, human, UniProt Q13489 1-335, looked up)
chain: MNIVENSIFLSNLMKSANTFELKYDLSCELYRMSTYSTFPAGVPVSERSLARAGFYYTGVNDKVKCFCCGLMLDNWKRGDSPTEKHKKLYPSCRFVQSLNSVNNLEATSQPTFPSSVTNSTHSLLPGTENSGYFRGSYSNSPSNPVNSRANQDFSALMRSSYHCAMNNENARLLTFQTWPLTFLSPTDLAKAGFYYIGPGDRVACFACGGKLSNWEPKDNAMSEHLRHFPKCPFIENQLQDTSRYTVSNLSMQTHAARFKTFFNWPSSVLVNPEQLASAGFYYVGNSDDVKCFCCDGGLRCWESGDDPWVQHAKWFPRCEYLIRIKGQEFIRQVQ
notes: range 1-335; not shown: glutathione S-transferase encoded by vector pGEX4T; vector linker not described
With B4, the Ki in test [10] worked out at 260 nM; in test [3], 238 nM.

Turning to B5, the results for the Ki in test [10] and in test [3] were 330 nM and 160 nM, respectively.

B6: in vitro translated 35S-labeled pro-caspase-9 (enzyme, UniProt P55211 1-416, looked up)
chain: MDEADRRLLRRCRLRLVEELQVDQLWDALLSRELFRPHMIEDIQRAGSGSRRDQARQLIIDLETRGSQALPLFISCLEDTGQDMLASFLRTNRQAAKLSKPTLENLTPVVLRPEIRKPEVLRPETPRPVDIGSGGFGDVGALESLRGNADLAYILSMEPCGHCLIINNVNFCRESGLRTRTGSNIDCEKLRRRFSSLHFMVEVKGDLTAKKMVLALLELAQQDHGALDCCVVVILSHGCQASHLQFPGAVYGTDGCPVSVEKIVNIFNGTSCPSLGGKPKLFFIQACGGEQKDHGFEVASTSPEDESPGSNPEPDATPFQEGLRTFDQLDAISSLPTPSDIFVSYSTFPGFVSWRDPKSGSWYVETLDDIFEQWAHSEDLQSLLLRVANAVSVKGIYKQMPGCFNFLRKKLFFKTS
modifications: 35S-L-methionine labeled
notes: domain: zymogen; also called zymogen of caspase-9; Mch6
As for B6, the binding result in test [11] and in test [12] was “binds” in each case.

B7: FLAG tagged pro-caspase-9 (enzyme, UniProt P55211 1-416, looked up, not shown: small tags and cut ends)
chain: MDEADRRLLRRCRLRLVEELQVDQLWDALLSRELFRPHMIEDIQRAGSGSRRDQARQLIIDLETRGSQALPLFISCLEDTGQDMLASFLRTNRQAAKLSKPTLENLTPVVLRPEIRKPEVLRPETPRPVDIGSGGFGDVGALESLRGNADLAYILSMEPCGHCLIINNVNFCRESGLRTRTGSNIDCEKLRRRFSSLHFMVEVKGDLTAKKMVLALLELAQQDHGALDCCVVVILSHGCQASHLQFPGAVYGTDGCPVSVEKIVNIFNGTSCPSLGGKPKLFFIQACGGEQKDHGFEVASTSPEDESPGSNPEPDATPFQEGLRTFDQLDAISSLPTPSDIFVSYSTFPGFVSWRDPKSGSWYVETLDDIFEQWAHSEDLQSLLLRVANAVSVKGIYKQMPGCFNFLRKKLFFKTS
notes: domain: zymogen; also called Flag-pro-caspase-9; FLAG-caspase-9
B7: the binding result in test [13] and in test [14] was “binds” in each case.
